In patent publication US7078382B1, “Modulation of eNOS activity and therapeutic uses thereof” (Genentech, Inc., priority 1999, dated 2006):

Tests used:
eNOS expression = eNOS expression by Western blot in ACE cells; format: cell-based, bovine; conditions: 500 pM, 2 days
Protocol: At the end of incubation, total cell lysates were prepared, and eNOS protein levels were determined by Western blot analysis.
Bovine adrenal cortex capillary endothelial cells (ACE) were prepared and maintained as previously described (Ferrara et.al., 1989 Biochem. Biophys. Res. Commun. 161:851–858). Briefly, cells were plated onto 6-well tissue culture plates (Costar) and grown in low glucose Dulbecco's modified Eagle's medium, supplemented with 2 mM […] (Life Technologies), 10% bovine calf serum (HyClone Lab., Inc.) and 100 μg/ml Penicillin/Streptomycin (Life Technologies). ACE cells were used between passages 4 and 8.
Medium was changed every 24 hours.
The methods for cell lysis and Western blot (WB) have been described in Shen et al., 1998 J. Biol. Chem. 273:29979–29985. A monoclonal anti-eNOS antibody was used at 1:2500 to probe eNOS protein. […] The protein bands were scanned by a densitometer and the relative intensities were quantified using IMAGEQUANT® software (Molecular Dynamics).
Confluent ACE cells were incubated with 500 pM rhVEGF. […] Equal amounts of protein were denatured under reducing conditions and separated in a 10% Novex mini gel and transferred to PVDF membrane. eNOS protein signals were visualized by ECL and quantified using densitometry.

Flt-1 receptor = Flt-1 receptor (Homo sapiens, UniProt P17948); experiment: RIA binding assay, FLT-1 receptor; conditions: relative to Native VEGF 165
Excerpt: The results are shown below in Table 6.

KDR receptor = KDR receptor (Homo sapiens, UniProt P35968); experiment: KDR receptor binding ELISA (inhibition of biotinylated native VEGF (8-109) binding); conditions: second figure of the cell, ratio to native VEGF (8-109)
Protocol: Receptor binding assays were performed in 96-well immunoplates (Maxisorp, Nunc-Immunoplate, Nalge Nunc International, Rochester, N.Y.). Each well was coated with 100 μl of a solution containing 8 μg/ml of a monoclonal antibody to KDR known as MAKD5 (Genentech, South San Francisco, Calif.) in 50 mM carbonate buffer at pH 9.6 and incubated at 4° C. overnight. The supernatant was discarded, the wells were washed three times in washing buffer (0.05% Tween 20 in PBS), and the plate was blocked (150 μl per well) with block buffer (0.5% BSA, 0.01% thimerosal in PBS) at room temperature for one hour. The supernatant was discarded, and the wells were washed.
Aliquots of this mixture (100 μl) were added to the precoated microtiter wells and the plate was incubated for 1 hour at room temperature. […] The wells were then incubated with 3, 3′, 5,5′-tetramethyl benzidine (0.2 gram/liter; Kirkegaard & Perry Laboratories, Gaithersburg, Md.) for about 10 minutes at room temperature. Absorbance was read at 450 nm on a Vmax plate reader (Molecular Devices, Menlo Park, Calif.).
Titration curves were fit with a four-parameter nonlinear regression curve-fitting program (KaleidaGraph, Synergy Software, Reading, Pa.).

Sequence of KDR receptor (P35968 20-327 limits assumed): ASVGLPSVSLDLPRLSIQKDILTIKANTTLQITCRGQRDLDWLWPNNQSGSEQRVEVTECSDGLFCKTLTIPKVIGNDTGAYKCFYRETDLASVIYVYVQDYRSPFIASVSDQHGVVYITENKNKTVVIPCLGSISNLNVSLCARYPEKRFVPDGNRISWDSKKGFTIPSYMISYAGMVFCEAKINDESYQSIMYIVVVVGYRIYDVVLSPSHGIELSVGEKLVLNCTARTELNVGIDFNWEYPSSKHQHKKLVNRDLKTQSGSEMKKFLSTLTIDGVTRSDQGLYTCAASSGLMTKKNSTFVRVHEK
Sequence of Flt-1 receptor (P17948 27-1338): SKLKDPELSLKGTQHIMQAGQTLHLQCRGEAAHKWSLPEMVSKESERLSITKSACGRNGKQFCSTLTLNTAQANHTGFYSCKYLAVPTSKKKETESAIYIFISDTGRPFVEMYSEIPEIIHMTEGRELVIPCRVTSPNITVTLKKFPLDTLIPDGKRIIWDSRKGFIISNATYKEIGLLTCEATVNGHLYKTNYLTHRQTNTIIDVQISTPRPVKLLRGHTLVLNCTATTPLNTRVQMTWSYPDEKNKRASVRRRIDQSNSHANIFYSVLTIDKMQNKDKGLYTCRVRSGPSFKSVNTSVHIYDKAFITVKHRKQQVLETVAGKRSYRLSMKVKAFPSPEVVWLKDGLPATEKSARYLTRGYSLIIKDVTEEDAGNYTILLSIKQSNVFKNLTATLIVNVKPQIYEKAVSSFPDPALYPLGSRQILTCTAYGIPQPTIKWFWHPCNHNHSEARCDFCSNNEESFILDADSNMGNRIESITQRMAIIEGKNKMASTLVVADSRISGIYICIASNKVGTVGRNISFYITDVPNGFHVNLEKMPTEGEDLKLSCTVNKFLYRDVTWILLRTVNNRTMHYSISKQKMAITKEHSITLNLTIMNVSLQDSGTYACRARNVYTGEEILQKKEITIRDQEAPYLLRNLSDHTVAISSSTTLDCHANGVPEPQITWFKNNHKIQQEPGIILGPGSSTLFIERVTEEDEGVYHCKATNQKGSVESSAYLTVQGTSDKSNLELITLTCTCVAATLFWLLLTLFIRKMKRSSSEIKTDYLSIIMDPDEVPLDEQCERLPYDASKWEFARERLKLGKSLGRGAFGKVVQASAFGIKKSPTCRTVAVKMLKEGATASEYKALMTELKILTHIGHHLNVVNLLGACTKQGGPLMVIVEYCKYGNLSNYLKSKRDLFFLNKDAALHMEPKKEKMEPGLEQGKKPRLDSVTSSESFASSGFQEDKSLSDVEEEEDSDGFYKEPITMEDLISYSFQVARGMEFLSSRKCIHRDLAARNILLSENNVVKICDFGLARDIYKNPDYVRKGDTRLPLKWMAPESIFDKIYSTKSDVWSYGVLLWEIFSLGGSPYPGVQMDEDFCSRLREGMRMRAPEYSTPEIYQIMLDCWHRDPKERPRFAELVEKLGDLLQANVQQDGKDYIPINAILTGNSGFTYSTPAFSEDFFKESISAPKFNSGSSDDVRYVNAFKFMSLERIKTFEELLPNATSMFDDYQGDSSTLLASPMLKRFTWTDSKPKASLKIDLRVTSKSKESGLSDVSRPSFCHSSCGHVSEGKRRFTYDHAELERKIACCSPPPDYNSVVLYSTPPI

| Relative Binding Affinity FLT-1 Receptor (Flt-1 receptor) | Relative Binding Affinity KDR Receptor (KDR receptor) [nM/1] | Molecule | eNOS expression with angiogenic factors (eNOS expression) |
| --- | --- | --- | --- |
| – | – | TGF-beta2: recombinant human transforming growth factor (protein, UniProt P61812 303-414, looked up, Transforming growth factor beta-2) Transforming growth factor …: ALDAAYCFRNVQDNCCLRPLYIDFKRDLGWKWIHEPKGYNANFCAGACPYLWSSDTQHSRVLSLYNTINPEASASPCCVSQDLEPLTILYYIGKTPKIEQLSNMIVKSCKCS | reduced endogenous eNOS expression |
| 14,000 | 1 | LK-VRB-1s*: VEGF (1-109) variant, M18E/Y21L/Q22R/Y25S (protein) APMAEGGGQNHHEVVKFEDVLRRSSCHPIETLVDIFQEYPDEIEYIFKPSCVPLMRCGGCCNDEGLECVPTEESNITMQIMRIKPHQGQHIGEMSFLQHNKCECRPKKD | – |
